Reference: the nanobody polyreactivity screen of Harvey et al. (2022)

experiment: yeast display, Sf9 membrane polyspecificity reagent, FACS + sequencing; frameworks hold sequencing errors
Procedure, shortened: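 After 36–48 hours of galactose induction, yeast (Saccharomyces cerevisiae BJ5465) displaying a synthetic nanobody library were stained at 4 °C for 1 hour with 10% biotinylated, detergent-solubilized Sf9 membrane reagent. Streptavidin microbeads enriched the stained cells before FACS sorting into low and high (top ~1%) gates on anti-HA and streptavidin fluorescence. Each clone's polyreactivity label reflects its gate of origin.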

Row | Sequence | polyreactivity (PSR sort gate)
1 | QVQLVESGGGLVQAGGSLRLSCAASGFIFRRYAMGWYRQAPGKERELVAIITSGVRTYSADSVKGRFTISRDNAKNTVYLQMNSLKPEDTAVYYCAARVKDYPEYDYWGQGTQVTVSS | low polyreactivity
2 | QVQLVESGGGLVQAGGSLRLSCAASGFIFRRYVMGWYRQAPGKERELVAAISNGGGRTYYADSVKGRFTISRDNAKNTVYLQMNSLKPEDTAVYYCAAYPRGPLAPDYDYWGQGTQVTVSS | high polyreactivity
3 | QVQLVESGGGLVQAGGSLRLSCAASGFIFRRYVMGWYRQAPGKERELVAAISRGGSTYYADSVKGRFTISRDNAKNTVYLQMNSLKPEDTAVYYCNTPGGFVGDDYDYWGQGTQVTVSS | high polyreactivity
4 | QVQLVESGGGLVQAGGSLRLSCAASGFIFRSYAMGWYRQAPGKERELVAGISYRGGSTYYADSVKGRFTISRDNAKNTVYLQMNSLKPEDTAVYYCAATAWYNWYFGLDYWGQGTQVTVSS | high polyreactivity
5 | QVQLVESGGGLVQAGGSLRLSCAASGFIFRVNALGGSRPAPGKERVLVAARISSSGSTYYADSVKGRFTISRDNAKNTVYLQMNSLKPEDTAVYYCAADPYYLQQFDYWGQGTQVTVSS | low polyreactivity
6 | QVQLVESGGGLVQAGGSLRLSCAASGFIFRVNAMGWYRQAPGKERELVAAISRRGGSTYYADSVKGRFTISRDNAKNTVYLQMNSLKPEDTAVYYCAVKGASYPAYRGYDYWGQGTQVTVSS | high polyreactivity
7 | QVQLVESGGGLVQAGGSLRLSCAASGFIFRVNAMGWYRQAPGKERELVAAISSSGTSTYYADSVKGRFTISRDNAKNTVYLQMNSLKPEDTAVYYCAARLFYRSAYGYWGQGTQVTVSS | high polyreactivity
8 | QVQLVESGGGLVQAGGSLRLSCAASGFIFRVYAMGWYRQAPGKERELVAAISDSGGSTTYADSVKGRFTISRDNAKNTVYLQMNSLKPEDTAVYYCAADYDFFSLYLYDYWGQGTQVTVSS | low polyreactivity
9 | QVQLVESGGGLVQAGGSLRLSCAASGFIFRWYAMGWYRQAPGKERELVASITRGGSTNYADSVKGRFTISRDNAKNTVYLQMNSLKPEDTAVYYCAAGWRRAAGIQYWYGYWGQGTQVTVSS | high polyreactivity
10 | QVQLVESGGGLVQAGGSLRLSCAASGFIFRWYAMGWYRQEPGKERELVAAITWRGGSTYADSVKGRFTISRDNAKNTVYLQMNSLKPEVTAVYYCAAETHRRYDYWGQGTQVTVSS | high polyreactivity
11 | QVQLVESGGGLVQAGGSLRLSCAASGFIFRYNTMGWYRQAPGIVRELVAAISVSGARTYYADSVKGRFTISRDNAKKTVYLQMNSLKPEDTAVYYCNRRYPFYSRYNNDYWGLGTQVTVSS | high polyreactivity
12 | QVQLVESGGGLVQAGGSLRLSCAASGFIFRYNTMGWYRQEPGKERELVAAISKSGGRTYYADSVKGRFTISRDNAMNTVYLQMNSLNPEDTAVYYCAATLSYTGSKRYDYWGQGTQVTVSS | high polyreactivity
13 | QVQLVESGGGLVQAGGSLRLSCAASGFIFRYYAMGWSRQAPGKERELVASINSGGSTYYADSVKGRFTISRDNAKNTVYLQMNSLKPEDTAVYYCAVVLQYDWAYEKSYYWGQGTQVTVSS | low polyreactivity
14 | QVQLVESGGGLVQAGGSLRLSCAASGFIFRYYAMGWSRQAPGKERELVAVISSNGARTSYADSVKGRFTISRDNAKNTVYLQMNSLKPEDTAVYYCNARAWSRFPPVGHDYWGQGTQVTVSS | high polyreactivity
15 | QVQLVESGGGLVQAGGSLRLSCAASGFIFRYYAMGWYRQAPGKERELVAAISRGGSTNYADSVKGRFTISRDNAKNTVYLQMNSLKPEDTAVYYCAARTVRARSKFEYWGQGTQVTVSS | high polyreactivity
16 | QVQLVESGGGLVQAGGSLRLSCAASGFIFRYYAMGWYRQAPGKERELVAAISRSGGRTYYADSVKGRFTISRDNAKNTVYLQMNSLKPEDTAVYYCAARYPVRPDDGYWGQGTQVTVSS | high polyreactivity
17 | QVQLVESGGGLVQAGGSLRLSCAASGFIFRYYAMGWYRQAPGKERELVAAISSGGRTSYADSVKGRFTISRDNAKNTVYLQMNSLKPEDTAVYYCAADRWRGLFYYGNDYWGQGTQVTVSS | high polyreactivity
18 | QVQLVESGGGLVQAGGSLRLSCAASGFIFRYYAMGWYRQAPGKERELVAAISSRAGRTYADSVKGRFTISRDNAKYSVYLQMNSLKPEDTAVYYCAVRSKRKDVGYWGQGTQVTVSS | high polyreactivity
19 | QVQLVESGGGLVQAGGSLRLSCAASGFIFRYYAMGWYRQAPGKERELVAAITSRGSSTYYADSVKGRFTISRDNAKNTVYLQMNSLKPDDTAVYYCAARLRGDYVRYDYWGQGTQVTVSS | high polyreactivity
20 | QVQLVESGGGLVQAGGSLRLSCAASGFIFRYYAMGWYRQAPGKERELVAAITSRGSSTYYADSVKGRFTISRDNAKNTVYLQMNSLKPEDTAVYYCAARSSATRSWIASRPGYRYNYWGQGTQVTVSS | high polyreactivity
21 | QVQLVESGGGLVQAGGSLRLSCAASGFIFRYYAMGWYRQEPGKERELVAAIDYSGGSTNYADSVKGRFTISRDNAKNTVYLQMNSLKPEDTAVYYCNAEYTWHRGYDYWGQGTQVTVSS | low polyreactivity
22 | QVQLVESGGGLVQAGGSLRLSCAASGFIFRYYAMGWYRQEPGKERELVAAISGSGGSKYYADSVKGRFTISRDNAKNNVYLQMNSLKQEDTAVYYFAKSYGSHRKIRTSFGYWGQGTQVTVSS | high polyreactivity

Row | Sequence | polyreactivity (PSR sort gate)
23 | QVQLVESGGGLVQAGGSLRLSCAASGFIFRYYAMGWYRQEPGKERELVAAITSRGSSTYYADSVKGRFTISRDNAKNTVYLQMNSLKPEDTAVYYCAARLRGDYVRYDYWGQGTQVTVSS | high polyreactivity
24 | QVQLVESGGGLVQAGGSLRLSCAASGFIFRYYARGWYRQAPGKERELVAAITSTGRTYYADSVKGRFTISRDNAKNTVYLQMNSLKPEDTAVYYCAKAWLRWGEDYWGQGTQVTVSS | low polyreactivity
25 | QVQLVESGGGLVQAGGSLRLSCAASGFIFSAYAMGWYRQAPGKERELVAAISYSGGTTYYADSVKGRFTISRDNAKNTVYLQMNSLKPEDTAVYYCAAGVGYWGQGTQVTVSS | high polyreactivity
26 | QVQLVESGGGLVQAGGSLRLSCAASGFIFSIYVMGWYRQAPGKERELVATISSTGSTNYADSVKGRFTISRDNAKNTVYLQMNSLKPEDTAVYYCAAYRRWWGQGTQVTVSS | high polyreactivity
27 | QVQLVESGGGLVQAGGSLRLSCAASGFIFSKYAMGWYRQAPGKERELVAAITRSGGRTYYADSVKGRFTISRDNAKNTVYLQMNSLKPEDSAVYYCAASWLYFGRDYWGQGTQVPVSS | high polyreactivity
28 | QVQLVESGGGLVQAGGSLRLSCAASGFIFSLYAMGWYRQAPGKERELVAVITWSDGRTYYADSVKGRFTISRDNAKNTVYLQMNSLKQEDTAVYYCAAADWITEYDYWGQGTQVTVSS | low polyreactivity
29 | QVQLVESGGGLVQAGGSLRLSCAASGFIFSNYAMGWYRQAPGKERELVAAISRSGGSTYYADSVKGRFTISRDNAKNTVYLQMNSLKPEDTAVYYCAARHAPILGDHGMKYWGQGTQVTVSS | high polyreactivity
30 | QVQLVESGGGLVQAGGSLRLSCAASGFIFSNYAMGWYRQEPGKERELVAAISWSGTLTNYADSVKGRFTISRDNAKNTVYLQMNSLKPEDTAVYYCAAYGDYLYDYWGQGTQVTVSS | low polyreactivity
31 | QVQLVESGGGLVQAGGSLRLSCAASGFIFSRNAMGWYRQAPGKEREFVAAISGRGGSTYYADSVKGRFTISRDNAKNTVYVQMNSLKPEDTAVYYCAVYSYGQTYSGYYLGQGTQVTVSS | high polyreactivity
32 | QVQLVESGGGLVQAGGSLRLSCAASGFIFSRNVMGWYRQAPGKDRELVAAISRSGGSTYYADSVKGRFTISRDNAKNTVYLQMNSLKPEDTAVYYCAAVRRVYSQNDYWGQGTQVTVSS | high polyreactivity
33 | QVQLVESGGGLVQAGGSLRLSCAASGFIFSRYAMGWSRQAPGKERELVAAISSRGGSTYYADSVKGRFTISRDNAKNTVYLQMNSLKPEDTAVFYWIAVGSAHYDYWGQGTQVTVSS | high polyreactivity
34 | QVQLVESGGGLVQAGGSLRLSCAASGFIFSRYAMGWYRQAPGKERELVAAISIGGSTYYADSVKGRFTISRDNAKNTVYLQMNSLKPEDTAVYDCAVDYRHSSSWNAGPWEMYYWGQGTQVTVSS | low polyreactivity
35 | QVQLVESGGGLVQAGGSLRLSCAASGFIFSSYAMGSYRQAPGKERELVAAISWSGGSTYYADSVKGRFTISRDNAKNTVYLQMKSLKPEDAAVYYCASVTRIFDYWGQGTQVTVSS | high polyreactivity
36 | QVQLVESGGGLVQAGGSLRLSCAASGFIFSSYAMGWYRPAPGKERELVAAISKSGGRTYYADSVKGRFTISRDNAKNTVYLQMNSLKPEDTSVYYCAKDVSDPFYDPFEYWGQGTQVTVSS | low polyreactivity
37 | QVQLVESGGGLVQAGGSLRLSCAASGFIFSSYAMGWYRQAPGKERELVAAINSSGGRTYYADSVKGRFTISRDNAKNTVYLQMNSLKPEDTAVYYCAAVVWSYYVGDDYWGQGTQVTVSS | high polyreactivity
38 | QVQLVESGGGLVQAGGSLRLSCAASGFIFSSYAMGWYRQAPGKESELVAAITSGGSTNYADSVKGRFTISRDNAKNTVYLQMNSLKPEDTADYYCATLPGGSWFFHWWSTGGDDEYWGQGTQVTVSS | low polyreactivity
39 | QVQLVESGGGLVQAGGSLRLSCAASGFIFSSYAMGWYRQATGKERELVATISWSGGSTYYADSVKGRFTISRDNAKNTVYLQMNSLKPEDTAVYYCAAGYQRYLQRPEFYYWGQGTQVTVSS | high polyreactivity
40 | QVQLVESGGGLVQAGGSLRLSCAASGFIFSTYTMGWYRQAPGKERELVAAISWRGGRTYYADSVKGRFTISRDNAKNTVYLQMNSLKPEDTAVYYCADYGTIRSSTAVEPLYNHWGQGTQVTVSS | high polyreactivity
41 | QVQLVESGGGLVQAGGSLRLSCAASGFIFSVYAMGGYRQAPGKDTELVAVISTSGGRTYYADSVKGRFTISRDNAKNTVYLQMNSLKPEDTAVYYCAADGFQYTLGNYYWGQGTQVTVSS | high polyreactivity
42 | QVQLVESGGGLVQAGGSLRLSCAASGFIFSWYAMGWYRQAPGKERELVAAISHDGGSTYYADSVKGRFTISRDNAKNTVYLQMNSLKAEDTAVYYCAAPLRALSQRMGYWGQGTQVTVSS | high polyreactivity
43 | QVQLVESGGGLVQAGGSLRLSCAASGFIFSYYAMGRYRQAPGKEREMVAAITWSGSSTYYADSVKGRFTISRDNAKNTVYLQMYSLIPEDNAVYSCAASSGGFRHYFYTYNYWGQGTQVTVSS | high polyreactivity
